This passage reports stoichiometry N results from paper PMC10251734.

In this assay the target is SARS-CoV-2 Wuhan-Hu-1 spike, soluble trimeric, residues 1-1204, 6 proline mutations (SARS-CoV-2) (UniProt P0DTC2). In words: SEC.

As a reminder, the stoichiometry N is a count of units in the complex or per binding partner. On to “SARS-CoV-2 Wuhan-Hu-1 spike, soluble trimeric, residues 1-1204, 6 proline mutations (from UniProt P0DTC2 14-1204) (domain or fragment)”, for which the stoichiometry N turned out to be 3.
